Test [1] concerns the target T1, recombinant biotinylated monomeric Fc fusion of human Folate Receptor 1 (huFolR1 ECD-AcTev-Fcknob-Avi tag … (human, UniProt P0DOX5 223-449 = IgG part, biotin on the C-terminal Avi tag)).
T1 construct: also called huFolR1-Fc; human FolR1-Fc
Briefly: SPR Biacore, avidity (bivalent, apparent KD), antigen-Fc on SA chip. As to the method:
(§1) Binding of FolR1 binders as IgG or in the T-cell bispecific format to different recombinant folate receptors (human FolR1, 2 and 3, murine FolR1 and cynomolgus FolR1; all as Fc fusions) was assessed by surface plasmon resonance (SPR). All SPR experiments were performed on a Biacore T200 at 25° C. with HBS-EP as running buffer (0.01 M HEPES pH 7.4, 0.15 M NaCl, 3 mM EDTA, 0.005% Surfactant P20, Biacore, Freiburg/Germany).
(§2) Recombinant biotinylated monomeric Fc fusions of human, cynomolgus and murine Folate Receptor 1 (FolR1-Fc) were directly coupled on a SA chip using the standard coupling instruction (Biacore, Freiburg/Germany). The immobilization level was about 300-400 RU. The anti-FolR1 IgGs or T cell bispecifics were passed at a concentration range from 2.1 to 500 nM with a flow of 30 μL/minutes through the flow cells over 180 seconds. The dissociation was monitored for 600 seconds. Bulk refractive index differences were corrected for by subtracting the response obtained on reference flow cell immobilized with recombinant biotinylated IL2 receptor Fc fusion. […] The binding curves resulting from the bivalent binding of the IgGs or T cell bispecifics were approximated to a 1:1 Langmuir binding and fitted with that model (which is not correct, but gives an idea of the avidity). The apparent avidity constants for the interactions were derived from the rate constants of the fitting using the Bia Evaluation software (GE Healthcare).

Test [2] has as its target T2, recombinant biotinylated monomeric Fc fusion of cynomolgus Folate Receptor 1 (cy FolR1 ECD-AcTev-Fcknob-Avi … (cynomolgus, UniProt P0DOX5 223-449 = IgG part, biotin on the C-terminal Avi tag)).
T2 construct: also called cyFolR1-Fc; cyno FolR1
The test is described as above. As to the method:
as §1, §2

The target of test [3] is T3, recombinant biotinylated monomeric Fc fusion of murine Folate Receptor 1 (mu FolR1 ECD-AcTev-Fcknob-Avitag … (murine, UniProt P0DOX5 223-449 = IgG part, biotin on the C-terminal Avi tag)).
T3 construct: also called muFolR1-Fc; murine FolR1
The test is described as above. The method, then: as §1, §2

Test [4] concerns the target T4, human FolR1 expressed on cells (HeLa, SKOV3, HT-29, transfected HEK cells) (human, UniProt P15328 25-234).
T4 construct: whole, on cells; also called FolR1 on HeLa cells; human FolR1 on cells
Briefly: flow cytometry on transfected HEK cells.

Consider one molecule from patent publication US20220220224A1 (Hoffmann-La Roche, published 2022).

Usually koff stands for the rate constant with which the complex falls apart. For orientation: kon means the rate constant with which the complex forms.

T4 sequence (P15328 25-234): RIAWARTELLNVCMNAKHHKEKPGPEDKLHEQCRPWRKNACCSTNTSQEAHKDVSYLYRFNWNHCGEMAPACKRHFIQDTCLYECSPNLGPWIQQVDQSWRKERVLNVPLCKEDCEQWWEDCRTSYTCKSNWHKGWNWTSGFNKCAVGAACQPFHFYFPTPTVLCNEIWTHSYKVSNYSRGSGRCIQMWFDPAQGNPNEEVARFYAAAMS

B1: 36F2 IgG (antibody, V domains shown)
VH: QVQLVQSGAEVKKPGASVKVSCKASGYTFTSYYMHWVRQAPGQGLEWMGIINPSGGSTSYAQKFQGRVTMTHDTSTSTVYMELSSLRSEDTAVYYCARSFFTGFHLDYWGQGTLVTVSS
VL: EIVLTQSPGTLSLSPGERATLSCRASQSVSSSYLAWYQQKPGQAPRLLIYGASSRATGIPDRFSGSGSGTDFTLTISRLEPEDFAVYYCQQYTNEHYYTFGQGTKVEIK
As for B1, in test [1], the Kd was determined as 5.74 nM, the koff came out at 0.0151 s⁻¹ and the kon turned out to be 2.62e+06 M⁻¹ s⁻¹. For the same molecule, in test [2], the Kd was found to be 5.31 nM, the koff amounted to 0.016 s⁻¹ and the kon was found to be 3.02e+06 M⁻¹ s⁻¹. Moreover, in test [3], the Kd was found to be 1.63 nM, the koff stood at 0.000603 s⁻¹ and the kon stood at 370000 M⁻¹ s⁻¹. The binding result in test [4] is listed as “binds”.
